B2: Bovine lipoprotein lipase (enzyme, UniProt P11151 29-478, looked up)
chain: DRITGGKDFRDIESKFALRTPEDTAEDTCHLIPGVTESVANCHFNHSSKTFVVIHGWTVTGMYESWVPKLVAALYKREPDSNVIVVDWLSRAQQHYPVSAGYTKLVGQDVAKFMNWMADEFNYPLGNVHLLGYSLGAHAAGIAGSLTNKKVNRITGLDPAGPNFEYAEAPSRLSPDDADFVDVLHTFTRGSPGRSIGIQKPVGHVDIYPNGGTFQPGCNIGEALRVIAERGLGDVDQLVKCSHERSVHLFIDSLLNEENPSKAYRCNSKEAFEKGLCLSCRKNRCNNMGYEINKVRAKRSSKMYLKTRSQMPYKVFHYQVKIHFSGTESNTYTNQAFEISLYGTVAESENIPFTLPEVSTNKTYSFLLYTEVDIGELLMLKLKWISDSYFSWSNWWSSPGFDIGKIRVKAGETQKKVIFCSREKMSYLQKGKSPVIFVKCHDKSLNRKSG
notes: lipoprotein lipase (LPL), bovine, purified from bovine milk; In the RICS experiments 10 nM of the LPL carried ATTO610 (NHS ester labelling) and 190 nM was unlabelled; it says that most experiments were done with bovine LPL; also called bLPL; bovine LPL; source: purified from bovine milk

The target of experiment [1] is B2.
The target in experiment [2] is T1, Bovine serum albumin (bovine, UniProt P02769 25-607).
T1 construct: serum albumin, bovine; also called BSA; source: bought: Sigma Aldrich (#A7906)
T1 sequence (P02769 25-607): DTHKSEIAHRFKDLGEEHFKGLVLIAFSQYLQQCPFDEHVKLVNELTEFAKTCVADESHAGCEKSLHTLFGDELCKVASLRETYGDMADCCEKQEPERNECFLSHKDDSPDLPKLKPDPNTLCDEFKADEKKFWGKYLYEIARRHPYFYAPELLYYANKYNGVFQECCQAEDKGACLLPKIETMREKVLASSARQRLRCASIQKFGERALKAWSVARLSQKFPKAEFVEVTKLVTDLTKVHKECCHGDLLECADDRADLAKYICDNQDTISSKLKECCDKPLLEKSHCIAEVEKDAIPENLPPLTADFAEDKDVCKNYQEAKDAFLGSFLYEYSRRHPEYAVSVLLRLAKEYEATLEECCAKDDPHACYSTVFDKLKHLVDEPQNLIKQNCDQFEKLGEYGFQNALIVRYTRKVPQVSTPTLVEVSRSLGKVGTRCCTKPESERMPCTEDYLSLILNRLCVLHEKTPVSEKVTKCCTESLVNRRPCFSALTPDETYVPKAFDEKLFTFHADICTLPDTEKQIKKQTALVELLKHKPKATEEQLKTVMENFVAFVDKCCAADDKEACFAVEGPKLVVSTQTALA
The experiment in a line: ITC; 752 μM BSA in the syringe titrated (38 injections) into 1.695 μM bLPL with 10 IU/ml heparin; 20 mM HEPES, 150 mM NaCl, pH 7.4; 25°C; apparent KD of the initial binding phase. The following applies: both partners purified.

Experiment [3] has as its target T1, Bovine serum albumin. The experiment in a line: not stated; equilibrium dissociation constant of the LPL-albumin complex as given in the introduction; experiment not named.
In experiment [4] the target is B2. The experiment can be described thus: cell-based or functional assay.
The target of a further experiment is T2, Human serum albumin (human, UniProt P02768 25-609).
T2 construct: serum albumin, human; also called HSA
T2 sequence (P02768 25-609): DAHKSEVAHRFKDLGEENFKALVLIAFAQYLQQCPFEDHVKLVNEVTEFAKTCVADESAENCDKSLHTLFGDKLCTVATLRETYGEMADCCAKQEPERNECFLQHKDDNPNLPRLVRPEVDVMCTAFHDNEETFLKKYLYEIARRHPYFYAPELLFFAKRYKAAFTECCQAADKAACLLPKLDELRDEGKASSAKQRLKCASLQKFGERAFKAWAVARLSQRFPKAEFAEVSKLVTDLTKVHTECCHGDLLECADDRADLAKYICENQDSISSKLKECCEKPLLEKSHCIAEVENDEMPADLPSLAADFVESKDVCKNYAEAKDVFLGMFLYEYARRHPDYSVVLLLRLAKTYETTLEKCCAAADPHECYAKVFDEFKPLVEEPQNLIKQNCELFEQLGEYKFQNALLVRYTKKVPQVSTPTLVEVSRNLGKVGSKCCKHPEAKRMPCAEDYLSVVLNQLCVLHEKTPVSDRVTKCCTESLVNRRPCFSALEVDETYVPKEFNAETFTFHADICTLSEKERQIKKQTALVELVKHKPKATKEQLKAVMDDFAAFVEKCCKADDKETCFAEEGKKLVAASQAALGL
The experiment in a line: SPR; nANGPTL4 immobilised; HSA at various concentrations flowed over; plateau values plotted against HSA concentration after subtracting non-specific binding. The following applies: both partners purified.

Consider 3 molecules from publication PMC10096250, “Combined action of albumin and heparin regulates lipoprotein lipase oligomerization, stability, and ligand interactions” (PLOS ONE, 2023).

B1: Full-length ANGPTL4 (natural protein)
chain: GPVQSKSPRFASWDEMNVLAHGLLQLGQGLREHAERTRSQLSALERRLSACGSACQGTEGSTDLPLAPESRVDPEVLHSLQTQLKAQNSRIQQLFHKVAQQQRHLEKQHLRIQHLQSQFGLLDHKHLDHEVAKPARRKRLPEMAQPVDPAHNVSRLHRLPRDCQELFQVGERQSGLFEIQPQGSPPFLVNCKMTSDGGWTVIQRRHDGSVDFNRPWEAYKAGFGDPHGEFWLGLEKVHSITGDRNSRLAVQLRDWDGNAELLQFSVHLGGEDTAYSLQLTAPVAGQLGATTVPPSGLSVPFSTWDQDHDLRRDKNCAKSLSGGWWFGTCSHSNLNGQYFRSIPQQRQKLKKGIFWKTWRGRYYPLQATTMLIQPMAAEAAS
Take B1: in experiment [1], the residual LPL activity (ITC, human plasma) after 130 min of 200 nM LPL with 1 μM ANGPTL4 in the presence of both heparin and BSA came out at 35%; the residual LPL activity (ITC, human plasma) after 130 min of 200 nM LPL with 1 μM ANGPTL4 in the presence of heparin or BSA alone was 55%.

Turning to B2, the results for the Kd with Bovine serum albumin [2] and in the experiment with Bovine serum albumin [3] were 12.6 µM and 30 to 70 µM, respectively.

B3: Recombinant N-terminal domain of ANGPTL4 (nANGPTL4^26-184) (domain or fragment, UniProt Q9BY76 26-184, looked up)
chain: GPVQSKSPRFASWDEMNVLAHGLLQLGQGLREHAERTRSQLSALERRLSACGSACQGTEGSTDLPLAPESRVDPEVLHSLQTQLKAQNSRIQQLFHKVAQQQRHLEKQHLRIQHLQSQFGLLDHKHLDHEVAKPARRKRLPEMAQPVDPAHNVSRLHRL
notes: angiopoietin-like protein 4 (ANGPTL4), N-terminal domain, residues 26-184
As for B3, the “inactivation rate constant (ki) of LPL by 100 nM nANGPTL4 during lipolysis of CM/VLDL (ITC), at 10 or 50 mg/ml BSA against 2 mg/ml BSA” value in experiment [4] is approximately 1.6 fold. For the same molecule, the Kd with Human serum albumin stood at 500 ± 51 µM.
